Test [1] concerns Fabry mice. Description: Substrate reduction therapy in Fabry mouse model: Gb3 and lyso-Gb3 levels. Conditions: Fabry mice, in diet for 4 months starting at 8 months old; GZ 452 60 mg/kg/day, GZ 638 300 mg/kg/day. Type of test: in vivo. The method, then:
In the following experiments, mice dosed with GCS inhibitors at either ˜60 mg/kg/day of (S)-Quinuclidin-3-yl(2-(2-(4-fluorophenyl)thiazol-4-yl)propan-2-yl)carbamate (S)-2-hydroxysuccinate salt (hereinafter “GZ 452”) or ˜300 mg/kg/day of (1R,2R)-Octanoic acid[2-(2′,3′-dihydro-benzo[1,4] dioxin-6′-yl)-2-hydroxy-1-pyrrolidin-1-ylmethyl-ethyl]-amide-L-tartaric acid salt (hereinafter “GZ 638”) as a component of the pelleted food diet provided ad libitum. Lipid analysis was by ESI/MS as described in Marshall et al., PLoS ONE 5:e15033 (2010). As discussed in further detail below, treatment started when the mice were 3, 8 or 12 months of age to test the efficacy at different disease severities. Blood and urine was collected monthly and periodic tissue harvests provided materials to evaluate efficacy of the therapy (Gb3 and lyso-Gb3 levels). […] As further discussed below, the efficacy of SMT was affected by the age of the mice at the start of treatment. Generally, the older the mouse, the higher the levels of Gb3 stored and thus a longer period of treatment was required in order to affect similar therapeutic benefit (see FIG. 4). The experiments and results are described further below.
In this experiment, Fabry mice were treated with GCS inhibitors in their diet for 4 months starting at 8 months old. […] Age-matched wild-type levels (WT) are also shown. […]

In another test the test system is K14 mice. Conditions: neonatal (P1-P3) intracerebroventricular injections, previous experiments (Cabrera-Salazar et al. 2010); cited from earlier work.
Test [2] has as its system Fabry mice. Description: Combination therapy (ERT + SRT) in Fabry mouse model: plasma and urine Gb3 and lyso-Gb3. The class given is in vivo. Conditions: Fabry mice treated 2 months from 3 months of age; ERT 1 mg/kg iv every 2 months; SRT GZ 452 ~60 mg/kg/day in diet. An excerpt:
Fabry mice were used to test the in vivo efficacy of combining enzyme replacement therapy with small molecule therapy in a concurrent treatment format. The study was designed to evaluate whether substrate inhibition (i.e. “substrate reduction therapy”) using the GZ 452 compound could reduce re-accumulation of the storage material Gb3 and lyso-Gb3. The study protocol called for three distinct treatment groups of 3 month old male Fabry mice (FIG. 6A). The first group received intravenous injections of alpha-galactosidase A enzyme (ERT) at 1 mg/kg to reduce Gb3 levels and was repeated every 2 months. The second group received the same enzyme injections as group 1, but also were dosed with GZ 452 at ˜60 mg/kg/day as a component of the pelleted diet. The third group received only the daily dosing of GZ 452 in their diet. A fourth group received no treatment to serve as vehicle controls and a fifth group of wild-type animals provided ‘normal’ Gb3 and lyso-Gb3 values. Monthly urine and blood collections and three monthly tissue harvests provide materials to evaluate relative efficacy of the therapies (FIG. 6A).
After 2 months (mice were 5 months old), plasma (FIG. 6B, panels A and C) and urine (FIG. 6B, panels B & D) were analyzed for Gb3 (FIG. 6B, panels A and B) and lyso-Gb3 (FIG. 6B, panels C and D). […] SMT therapy alone or in combination with ERT was also capable of affecting (reducing accumulation) of lyso-Gb3.

Test [3] has as its system Fabry mice. Description: Thermal nociceptive response (55° C. hotplate) in Fabry mice. Type of test: in vivo, mouse. The conditions noted are these: 10 month old Fabry mice after 7 months of treatment. The method, then:
Three month old Fabry mice were treated with GZ 452 in their diet (SRT), αgal once every 2 months (ERT), or a combination of the 2 treatments (E+S), as described above. […]

Entries after “also recorded” stand apart in the source; their conditions may differ.

“(1R,2R)-Octanoic acid[2-(2′,3′-dihydro-benzo[1,4] dioxin-6′-yl)-2-hydroxy-1-pyrrolidin-1-ylmethyl-ethyl]-amide-L-tartaric acid salt [GZ 638, reference compound]”: the “Gb3 in visceral tissue (kidney, heart) relative to the starting levels” value in the test on Fabry mice [1] is reported as “effective at inhibiting further accumulation of tissue Gb3”.

B1: GC: Recombinant human glucocerebrosidase (rhGC), reformulated for ICV administration (protein, UniProt P04062 40-536, looked up)
Lysosomal acid …: ARPCIPKSFGYSSVVCVCNATYCDSFDPPTFPALGTFSRYESTRSGRRMELSMGPIQANHTGTGLLLTLQPEQKFQKVKGFGGAMTDAAALNILALSPPAQNLLLKSYFSEEGIGYNIIRVPMASCDFSIRTYTYADTPDDFQLHNFSLPEEDTKLKIPLIHRALQLAQRPVSLLASPWTSPTWLKTNGAVNGKGSLKGQPGDIYHQTWARYFVKFLDAYAEHKLQFWAVTAENEPSAGLLSGYPFQCLGFTPEHQRDFIARDLGPTLANSTHHNVRLLMLDDQRLLLPHWAKVVLTDPEAAKYVHGIAVHWYLDFLAPAKATLGETHRLFPNTMLFASEACVGSKFWEQSVRLGSWDRGMQYSHSIITNLLYHVVGWTDWNLALNPEGGPNWVRNFVDSPIIVDITKDTFYKQPMFYHLGHFSKFIPEGSQRVGLVASQKNDLDAVALMHPDGSAVVVVLNRSSKDVPLTIKDPAVGFLETISPGYSIHTYLWRRQ
On to B1, for which, in the test on K14 mice, the median survival was 23 days.

B2: ERT: alpha-galactosidase A enzyme (ERT), intravenous injections at 1 mg/kg every 2 months (protein, UniProt P06280 32-429, looked up)
Alpha-galactosidase A: LDNGLARTPTMGWLHWERFMCNLDCQEEPDSCISEKLFMEMAELMVSEGWKDAGYEYLCIDDCWMAPQRDSEGRLQADPQRFPHGIRQLANYVHSKGLKLGIYADVGNKTCAGFPGSFGYYDIDAQTFADWGVDLLKFDGCYCDSLENLADGYKHMSLALNRTGRSIVYSCEWPLYMWPFQKPNYTEIRQYCNHWRNFADIDDSWKSIKSILDWTSFNQERIVDVAGPGGWNDPDMLVIGNFGLSWNQQVTQMALWAIMAAPLFMSNDLRHISPQAKALLQDKDVIAINQDPLGKQGYQLRQGDNFEVWERPLSGLAWAVAMINRQEIGGPRSYTIAVASLGKGVACNPACFITQLLPVKRKLGFYEWTSRLRSHINPTGTVLLQLENTMQMSLKDLL
In the case of B2, in the test with Fabry mice [2], the “plasma Gb3 level” value is “to a greater extent than SMT; also recorded: reduced”, the “plasma lyso-Gb3 level” value is “reduced” and the “urine Gb3 level” value is recorded as “unaffected”. In addition, in the test with Fabry mice [3], the “thermal nociceptive response time (latency) vs untreated” value is on record as “not significantly different to the untreated group”.

(Values after patent US9126993B2, “Glucosylceramide synthase inhibitors” (GENZYME CORPORATION, priority 2011, dated 2015).)
